Measured values as given in patent US20240270821A1, “GIP/GLP1/GCG TRI-RECEPTOR AGONISTS AND USES THEREOF” (priority 2023, published 2024).
Positions count from the first letter of the chain named. One block for each binder: values may come before it. Starred links: 1 amine or outer side, 2 acyl side, 3 side chain; linkers in the order of their positions; H or OH if unused. Non-standard residues stand in square brackets, D forms with d. Groups on a side chain read outwards from the residue. No end group written: not given here. *: point of attachment. C20 diacid = O=C(O)CCCCCCCCCCCCCCCCCCC(=O)*; Phe(4-CN) = N#Cc1ccc(C[C@H](N)C(=O)O)cc1; αMePhe(2-F) = C[C@](N)(Cc1ccccc1F)C(=O)O; γGlu = O=C(O)[C@H](CCC(=O)[*:2])N[*:1]; αMeL = CC(C)C[C@](C)(N)C(=O)O; AEEA = NCCOCCOCC(=O)O; Aib = CC(C)(N)C(=O)O

Tests used:
Test in all cases: cell-based or functional assay
[1] = target: hGLP-1R (Homo sapiens, UniProt P43220)
[2] = target: Pro-Link-tagged Human GLP-1R (human) (UniProt P43220)
[3] = target: human GLP-1R (SNAP-GLP-1R expressed in HEK293 cells) (human) (UniProt P43220)
[4] = target: T1, human GIP receptor (human) (UniProt P48546)
T1 sequence (looked up): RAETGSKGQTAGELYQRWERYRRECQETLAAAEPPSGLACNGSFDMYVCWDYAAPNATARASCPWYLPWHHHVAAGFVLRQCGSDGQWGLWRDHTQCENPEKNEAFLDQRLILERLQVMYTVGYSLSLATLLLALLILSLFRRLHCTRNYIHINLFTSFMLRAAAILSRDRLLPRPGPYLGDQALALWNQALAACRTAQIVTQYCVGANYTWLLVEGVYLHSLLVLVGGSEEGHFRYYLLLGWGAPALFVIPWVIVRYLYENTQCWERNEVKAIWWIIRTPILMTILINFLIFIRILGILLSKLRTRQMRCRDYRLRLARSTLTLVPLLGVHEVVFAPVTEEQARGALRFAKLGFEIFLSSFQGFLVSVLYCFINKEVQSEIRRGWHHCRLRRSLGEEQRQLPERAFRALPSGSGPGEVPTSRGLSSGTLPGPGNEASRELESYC

[5] = target: human glucagon receptor (human) (UniProt P47871)
[6] = target: human GLP1-R (SNAP-GLP-1R expressed in HEK293 cells) (human) (UniProt P43220)
Chain of human GLP1-R (SNAP-GLP-1R expressed in HEK293 cells) (human) (P43220 24-463): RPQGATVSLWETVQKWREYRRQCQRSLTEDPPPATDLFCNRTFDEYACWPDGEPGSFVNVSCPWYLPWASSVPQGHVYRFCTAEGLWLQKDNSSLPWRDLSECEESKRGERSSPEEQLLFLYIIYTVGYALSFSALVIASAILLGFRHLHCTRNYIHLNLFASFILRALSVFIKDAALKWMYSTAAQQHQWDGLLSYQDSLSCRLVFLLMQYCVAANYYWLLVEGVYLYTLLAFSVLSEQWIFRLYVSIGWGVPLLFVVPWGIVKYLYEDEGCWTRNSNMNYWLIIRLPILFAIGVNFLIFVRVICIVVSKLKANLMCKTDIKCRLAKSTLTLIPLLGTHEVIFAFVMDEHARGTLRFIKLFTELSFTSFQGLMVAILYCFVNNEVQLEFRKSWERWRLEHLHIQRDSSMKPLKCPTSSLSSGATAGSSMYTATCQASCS

Chain of human GLP-1R (SNAP-GLP-1R expressed in HEK293 cells) (human) (P43220 24-463): as above
Chain of hGLP-1R (P43220 24-463): as above
Chain of Pro-Link-tagged Human GLP-1R (human) (P43220 24-463): as above
Chain of human glucagon receptor (human) (P47871 26-477): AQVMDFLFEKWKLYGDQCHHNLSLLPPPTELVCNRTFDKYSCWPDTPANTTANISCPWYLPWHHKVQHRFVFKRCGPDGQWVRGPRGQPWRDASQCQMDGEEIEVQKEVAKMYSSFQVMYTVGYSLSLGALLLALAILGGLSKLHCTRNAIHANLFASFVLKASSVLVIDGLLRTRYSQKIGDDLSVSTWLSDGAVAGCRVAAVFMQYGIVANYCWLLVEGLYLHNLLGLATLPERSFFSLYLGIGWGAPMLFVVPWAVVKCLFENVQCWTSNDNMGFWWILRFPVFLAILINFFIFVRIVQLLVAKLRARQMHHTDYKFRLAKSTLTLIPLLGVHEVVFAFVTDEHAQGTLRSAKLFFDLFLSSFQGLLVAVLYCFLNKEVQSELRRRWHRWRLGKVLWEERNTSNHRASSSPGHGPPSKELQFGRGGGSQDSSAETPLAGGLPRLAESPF

Relative cAMP EC50 [1]: 1.89 nM
cAMP Rel EC50 (in the presence of 1% HSA) [1]: 616 nM
% Stimulation Max [2]: 18%
hGLP1R β-arrestin Rel EC50 [2]: 16.3 nM
GLP1R Internalization EC50 [3]: 30.3 nM
Internalization % TOP [3]: 72.4%
Relative cAMP EC50 [4]: 0.234 nM
cAMP Rel EC50 (in the presence of 1% HSA) [4]: 59.1 nM
Relative cAMP EC50 [5]: 5.17 nM
cAMP Rel EC50 (in the presence of 1% HSA) [5]: 3580 nM
B1: Example 288 (peptide)
chain: YXQGTFTSDFSIXLDKKAQXAFIEYLLEGGPSSGEPPPSEG
modifications: synthetic construct; SITE 2: note = 2-Aminoisobutyric Acid; SITE 13: note = alpha-methyl-leucine; SITE 17: note = Lysine is chemically modified through conjugation of the epsilon-amino group of the Lysine side chain with (2-[2-(2-Amino-ethoxy)-ethoxy]-acetyl)-(gamma-Glu)-CO-(CH2) 18-CO2H; SITE 20: n

Relative cAMP EC50 [1]: 1.65 nM
cAMP Rel EC50 (in the presence of 1% HSA) [1]: 631 nM
% Stimulation Max [2]: 12.3%
hGLP1R β-arrestin Rel EC50 [2]: > 10000 nM
Relative cAMP EC50 [4]: 0.207 nM
cAMP Rel EC50 (in the presence of 1% HSA) [4]: 75.5 nM
GLP1R Internalization EC50 [6]: 49.5 nM
Internalization % TOP [6]: 66.8%
Relative cAMP EC50 [5]: 4.29 nM
cAMP Rel EC50 (in the presence of 1% HSA) [5]: 1630 nM
B2: Example 2 (peptide)
chain: B1 chain with I12K, E28A, E40G, G41E
modifications: Aib, αMeL; acylated Lys; C-terminal amide; synthetic construct; SITE 2: note = 2-Aminoisobutyric Acid; SITE 13: note = alpha-methyl-leucine; SITE 17: note = Lysine is chemically modified through conjugation of the epsilon-amino group of the Lysine side chain with (2-[2-(2-Amino-ethoxy)-ethoxy]-acetyl)-(gamma-Glu)-CO-(CH2) 18-CO2H; SITE 20: n

Relative cAMP EC50 [1]: 0.536 nM
cAMP Rel EC50 (in the presence of 1% HSA) [1]: 171 nM
% Stimulation Max [2]: 55.2%
hGLP1R β-arrestin Rel EC50 [2]: 14 nM
GLP1R Internalization EC50 [3]: 19.2 nM
Internalization % TOP [3]: 87.2%
Relative cAMP EC50 [4]: 0.0806 nM
cAMP Rel EC50 (in the presence of 1% HSA) [4]: 21.8 nM
Relative cAMP EC50 [5]: 1.72 nM
cAMP Rel EC50 (in the presence of 1% HSA) [5]: 517 nM
Binder: Y[Aib]QGT[αMePhe(2-F)]TSDYSILLDKIAAK([AEEA-γGlu-C20 diacid])AFIEYLIEGGPSSGEPPPSEG-NH2 [Example 296]

Relative cAMP EC50 [1]: 0.798 nM
cAMP Rel EC50 (1% HSA) [1]: 110 nM
% Stimulation Max [2]: 90.1%
hGLP1R β-arrestin Rel EC50 [2]: 8.78 nM
GLP1R Internalization EC50 [3]: 27.1 nM
Internalization % TOP [3]: 92.8%
Relative cAMP EC50 [4]: 0.0912 nM
cAMP Rel EC50 (1% HSA) [4]: 13 nM
Relative cAMP EC50 [5]: 4.49 nM
cAMP Rel EC50 (1% HSA) [5]: 836 nM
Binder: Y[Aib]QGT[αMePhe(2-F)]TSD[Phe(4-CN)]SILLDKQAQK([AEEA-AEEA-γGlu-C20 diacid])AFIEYLLEGGPSSGEPPPSEG-NH2 [Example 321]

Relative cAMP EC50 [1]: 1.56 nM
cAMP Rel EC50 (1% HSA) [1]: 293 nM
% Stimulation Max [2]: 44%
hGLP1R β-arrestin Rel EC50 [2]: 10.8 nM
GLP1R Internalization EC50 [3]: 28.2 nM
Internalization % TOP [3]: 84.8%
Relative cAMP EC50 [4]: 0.232 nM
cAMP Rel EC50 (1% HSA) [4]: 37.7 nM
Relative cAMP EC50 [5]: 6.04 nM
cAMP Rel EC50 (1% HSA) [5]: 1440 nM
Binder: Y[Aib]QGTFTSDYSI[αMeL]LDKIAAK([AEEA-AEEA-γGlu-C20 diacid])QFVQWLIE[Aib]GPSSGEPPPSEG-NH2 [Example 323]

Relative cAMP EC50 [1]: 0.926 nM
cAMP Rel EC50 (1% HSA) [1]: 204 nM
% Stimulation Max [2]: 74.5%
hGLP1R β-arrestin Rel EC50 [2]: 6.11 nM
GLP1R Internalization EC50 [3]: 34 nM
Internalization % TOP [3]: 91.1%
Relative cAMP EC50 [4]: 0.207 nM
cAMP Rel EC50 (1% HSA) [4]: 42.6 nM
Relative cAMP EC50 [5]: 3.47 nM
cAMP Rel EC50 (1% HSA) [5]: 842 nM
Binder: Y[Aib]QGTFTSDYSI[αMeL]LDKQAAKQFVEWLLA[Aib]GPSSGEPPPSEG (not fully specified (residue 20)) [Example 329]

Relative cAMP EC50 [1]: 0.831 nM
cAMP Rel EC50 (in the presence of 1% HSA) [1]: 232 nM
% Stimulation Max [2]: 44.1%
hGLP1R β-arrestin Rel EC50 [2]: 16.4 nM
GLP1R Internalization EC50 [3]: 31.4 nM
Internalization % TOP [3]: 88.4%
Relative cAMP EC50 [4]: 0.126 nM
cAMP Rel EC50 (in the presence of 1% HSA) [4]: 61.1 nM
Relative cAMP EC50 [5]: 2.15 nM
cAMP Rel EC50 (in the presence of 1% HSA) [5]: 605 nM
Binder: Y[Aib]QGT[αMePhe(2-F)]TSDYSKLLDKIAQK([AEEA-γGlu-C20 diacid])AFIEYLLEGGPSSGEPPPSEG-NH2 [Example 295]

Relative cAMP EC50 [1]: 0.449 nM
cAMP Rel EC50 (in the presence of 1% HSA) [1]: 139 nM
% Stimulation Max [2]: 47.5%
hGLP1R β-arrestin Rel EC50 [2]: 5.96 nM
GLP1R Internalization EC50 [3]: 10.9 nM
Internalization % TOP [3]: 86.5%
Relative cAMP EC50 [4]: 0.382 nM
cAMP Rel EC50 (in the presence of 1% HSA) [4]: 105 nM
Relative cAMP EC50 [5]: 5.02 nM
cAMP Rel EC50 (in the presence of 1% HSA) [5]: 1750 nM
Binder: Y[Aib]QGTFTSDYSI[αMeL]LDKK([AEEA-γGlu-C20 diacid])AQRAFIEYLLEGGPSSGEPPPSEG-NH2 [Example 289]
